From patent publication US20190330360A1 (IGM BIOSCIENCES, published 2019) come the findings set out here.

In the assay the target is T1, GITR on activated human T cells (human, UniProt Q9Y5U5 26-241).
T1 construct: also called GITR on CD4 T cells
T1 sequence: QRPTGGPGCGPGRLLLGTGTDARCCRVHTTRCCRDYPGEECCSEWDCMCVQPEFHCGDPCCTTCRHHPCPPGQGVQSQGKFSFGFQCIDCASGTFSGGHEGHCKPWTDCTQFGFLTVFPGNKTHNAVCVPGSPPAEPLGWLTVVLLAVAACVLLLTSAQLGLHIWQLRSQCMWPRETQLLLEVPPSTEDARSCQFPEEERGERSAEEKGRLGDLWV
Briefly: flow cytometry, binding dose response on activated human T cells. As for the experimental part: To assess the ability of IgG and IgM antibodies to bind GITR on activated T cells, a binding assay was performed by the following method. Tissue culture plates were coated with 5 μg/mL of anti-CD3 (eBioscience #16-0037-85) at 4° C. overnight, then washed 2 times with PBS. Purified human CD3 T cells (Astarte Biologics) were seeded at 0.1×10⁶ cells/well and incubated with 2 μg/mL of soluble anti-CD28 (Invitrogen #16-0289-85) for 4 days at 37° C. Cells were washed with FACS Stain Buffer (BD Pharmigen Catalog #554656) and 1×10⁵ cells were stained with serial dilutions of anti-GITR antibodies, 5 μg/mL IgG isotype control (Jackson ImmunoResearch #009-000-003), or 5 μg/mL IgM isotype control (Jackson ImmunoResearch #009-000-012) for 30 minutes at 4° C. Cells were washed twice, then stained for 30 minutes at 4° C. with 5 μg/mL anti-human kappa-AF488 secondary antibody (Biolegend #316512), and anti-human CD4-APC (BD Biosciences #555349) and anti-human CD25-PerCP (Biolegend #356111) for immunophenotyping. Cells were washed twice, resuspended in FACS Stain Buffer, and acquired by flow cytometry. The results are shown in FIG. 3A (Anti-GITR IgG and IgM #1) and FIG. 3B (Anti-GITR IgG and IgM #2). Filled histograms, Isotype controls; Open histograms, Anti-GITR antibodies. All the constructs bound to the activated T cells.
(Flow cytometry measures light scatter and fluorescence of single cells or particles in a stream.)

B1: Anti-GITR IgG #1 (antibody, V domains shown)
VH: QVQLVESGGGVVQPGRSLRLSCAASGFTFSSYGMHWVRQAPGKGLEWMAVIWYVGSNKYYADSVKGRFTISRDNSKNTLYLQMNSLRAEDTAVYYCARGGELGRDYYSGMDVWGQGTTVTVSS
VL: DIQMTQSPSSLSASVGDRVTITCRASQGIRNDLGWYQQKPGKAPKRLIYAASSLQSGVPSRFSGSGSGTEFTLTISSLQPEDFATYYCQQHNSYPWTFGQGTKVEIKR
notes: VH and VL put into IgG format; Detected with anti-human kappa; also called Anti-GITR #1 IgG; Anti-GITR #1 (IgG format)
For B1, the binding result is on record as “binds”.

B2: Anti-GITR IgG #2 (antibody, V domains shown)
VH: QVQLVESGGGVVQPGRSLRLSCAASGFTFSSYGMHWVRQAPGKGLEWVAVIWYEGSNKYYADSVKGRFTISRDNSKNTLYLQMNSLRAEDTAVYYCARGGSMVRGDYYYGMDVWGQGTTVTVSS
VL: AIQLTQSPSSLSASVGDRVTITCRASQGISSALAWYQQKPGKAPKLLIYDASSLESGVPSRFSGSGSGTDFTLTISSLQPEDFATYYCQQFNSYPYTFGQGTKLEIK
notes: VH and VL put into IgG format; Detected with anti-human kappa; also called Anti-GITR #2 IgG; Anti-GITR #2 (IgG format)
Regarding B2, the binding result was “binds”.
